Reference: the supplement of paper PMC7877785
± gives the uncertainty stated by the source.

Assay: self-splicing fitness, log relative to wild type (ln ratio); higher = more splicing; Tetrahymena group I intron in knt gene, E. coli kanamycin selection, DiMSum; sequences stand for … in CUCUCU…GGAGGGAAAAGUUAUCAGGCAUGCACCUGGUAGCUAGUCUUUAAACCAAUAGAUUGCAUCGGUUUAAAAGGCAAGACCGUCAAAUUGCGGGAAAGGGGUCAACAGCCGUUCAGUACCAAGUCUCAGGGGAAACUUUGAGAUGGCCUUGCAAAGGGUAUGGUAAUAAGCUGACGGACAUGGUCCUAACCACGCAGCCAAGUCCUAAGUCAACAGAUCUUCUGUUGAUAUGGAUGCAGUUCACAGACUAAAUGUCGGUCGGGGAAGAUGUAUUCUUCUCAUAAGAUAUAGUCGGACCUCUCCUUAAUGGGAGCUAGCGGAUGAAGUGAUGCAACACUGGAGCCGCUGGGAACUAAUUUGUAUGCGAAAGUAUAUUGAUUAGUUUUGGAGUACUCGUGGUCG
Method in brief: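 Colonies from six replicate transformations of E. coli BL21(DE3) were pooled and amplicon-sequenced on an Illumina HiSeq 2500. The library placed an intron with all eight P1ex-region nucleotides randomised inside the knt kanamycin-resistance gene on pET-22b(+), and cells grew overnight at 37°C or 30°C on LB agar with or without 25 μg/mL kanamycin (plus 100 μg/mL carbenicillin, 50 μM IPTG, 0.2% rhamnose). Fitness is the DiMSum error-weighted combination of wild-type-normalised replicate fold changes, kanamycin versus none.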

Sequence | self-splicing fitness (ln) (30 °C) | self-splicing fitness (ln) (37 °C)
GGGCAGCAAUAUUACGAACG | -1.18 ± 0.12 | 0.475 ± 0.17
GGGCAGCAAUAUUACGAAUG | -2.93 ± 0.17 | -2.12 ± 0.23
GGGCAGCAAUAUUACGACAA | -1.53 ± 0.22 | -0.573 ± 0.18
GGGCAGCAAUAUUACGAGAU | -3.14 ± 0.23 | -2.41 ± 0.32
GGGCAGCAAUAUUACGAGGA |  | -2.97 ± 0.47
GGGCAGCAAUAUUACGAUCA | -1.56 ± 0.13 | -0.598 ± 0.15
GGGCAGCAAUAUUACGCCCG | -2.33 ± 0.23 | 
GGGCAGCAAUAUUACGCCUG | -1.27 ± 0.14 | 0.02 ± 0.13
GGGCAGCAAUAUUACGCGAG | -0.948 ± 0.094 | -0.664 ± 0.098
GGGCAGCAAUAUUACGCGUU | -0.662 ± 0.073 | -0.349 ± 0.087
GGGCAGCAAUAUUACGCUGG | -3.14 ± 0.14 | -2.53 ± 0.16
GGGCAGCAAUAUUACGCUUG | -0.914 ± 0.088 | 0.22 ± 0.13
GGGCAGCAAUAUUACGGGAC | -2.3 ± 0.18 | -1.61 ± 0.18
GGGCAGCAAUAUUACGGUGG | -3.42 ± 0.17 | -1.86 ± 0.16
GGGCAGCAAUAUUACGUAUA | -1.85 ± 0.13 | -1.1 ± 0.14
GGGCAGCAAUAUUACGUGCG | -0.439 ± 0.057 | -0.235 ± 0.077
GGGCAGCAAUAUUACGUUAG | -1.81 ± 0.093 | -0.462 ± 0.13
GGGCAGCAAUAUUACGUUAU | -1.68 ± 0.097 | -0.345 ± 0.12
GGGCAGCAAUAUUACGUUCA | -0.593 ± 0.075 | -0.158 ± 0.12
GGGGAGCAAUAUUACGAAAG | -3.12 ± 0.44 | 
GGGGAGCAAUAUUACGAAUU | -1.24 ± 0.19 | -0.992 ± 0.25
GGGGAGCAAUAUUACGACUA | -0.712 ± 0.24 | -0.539 ± 0.29
GGGGAGCAAUAUUACGAUCA | -1.45 ± 0.18 | -0.807 ± 0.19
GGGGAGCAAUAUUACGCACU | -3.29 ± 0.36 | 
GGGGAGCAAUAUUACGCCUG | -2.33 ± 0.15 | -0.491 ± 0.13
GGGGAGCAAUAUUACGCGAG | -1.54 ± 0.43 | -0.692 ± 0.24
GGGGAGCAAUAUUACGGACG | -2.73 ± 0.32 | -1.21 ± 0.28

Sequence | self-splicing fitness (ln) (30 °C) | self-splicing fitness (ln) (37 °C)
GGGGAGCAAUAUUACGGAGC | -2.66 ± 0.33 | -1.79 ± 0.2
GGGGAGCAAUAUUACGGAGG |  | -1.4 ± 0.35
GGGGAGCAAUAUUACGGAUU | -3.35 ± 0.28 | -2.15 ± 0.23
GGGGAGCAAUAUUACGGCUC |  | -0.173 ± 0.34
GGGGAGCAAUAUUACGGUGA | -2.23 ± 0.36 | 
GGGGAGCAAUAUUACGGUGG | -3.04 ± 0.25 | -2.67 ± 0.24
GGGGAGCAAUAUUACGGUGU | -3.87 ± 0.37 | -1.37 ± 0.22
GGGGAGCAAUAUUACGUGUA | -3.7 ± 0.31 | -2.23 ± 0.22
GGGGAGCAAUAUUACGUUAU | -3.58 ± 0.18 | -2.14 ± 0.16
GGGUAGCAAUAUUACGAAUG | -2.18 ± 0.25 | -1.32 ± 0.4
GGGUAGCAAUAUUACGACCG | -1.03 ± 0.18 | -0.642 ± 0.33
GGGUAGCAAUAUUACGAGCU | -0.974 ± 0.17 | -1.33 ± 0.19
GGGUAGCAAUAUUACGAGGG | -3.42 ± 0.33 | -2.55 ± 0.33
GGGUAGCAAUAUUACGAUAA | -1.67 ± 0.13 | 0.147 ± 0.16
GGGUAGCAAUAUUACGAUCC | -2.2 ± 0.37 | -1.47 ± 0.5
GGGUAGCAAUAUUACGAUGU | -0.794 ± 0.1 | 0.357 ± 0.15
GGGUAGCAAUAUUACGCAGU | -1.34 ± 0.16 | -1.02 ± 0.11
GGGUAGCAAUAUUACGCAUU | -0.339 ± 0.094 | -0.245 ± 0.1
GGGUAGCAAUAUUACGCCAC |  | -1.72 ± 0.48
GGGUAGCAAUAUUACGCGAA | -0.995 ± 0.16 | -0.21 ± 0.13
GGGUAGCAAUAUUACGGAGU | -2.36 ± 0.22 | -1.21 ± 0.2
GGGUAGCAAUAUUACGGAUA | -1.74 ± 0.25 | -1.08 ± 0.29
GGGUAGCAAUAUUACGGCAC | -0.322 ± 0.14 | -0.0485 ± 0.18
GGGUAGCAAUAUUACGGCAG | -3.66 ± 0.4 | -2.62 ± 0.4
GGGUAGCAAUAUUACGGGCA | -0.435 ± 0.25 | -0.58 ± 0.26
GGGUAGCAAUAUUACGGUAG |  | -1.91 ± 0.23
GGGUAGCAAUAUUACGGUCU | -0.845 ± 0.08 | -0.011 ± 0.11

Sequence | self-splicing fitness (ln) (30 °C) | self-splicing fitness (ln) (37 °C)
GGGUAGCAAUAUUACGUAGG | -2.74 ± 0.24 | -1.5 ± 0.2
GGGUAGCAAUAUUACGUCCG | -0.212 ± 0.15 | -0.15 ± 0.19
GGGUAGCAAUAUUACGUGCC | -0.954 ± 0.48 | 
GGGUAGCAAUAUUACGUGGG | -4.13 ± 0.32 | -2.29 ± 0.19
GGGUAGCAAUAUUACGUGUC | -2.16 ± 0.18 | -0.684 ± 0.15
GGGUAGCAAUAUUACGUUAC |  | -4.17 ± 0.46
GGGUAGCAAUAUUACGUUCG | -0.742 ± 0.065 | 0.339 ± 0.086
GGUAAGCAAUAUUACGAACA | -0.0165 ± 0.19 | -0.383 ± 0.18
GGUAAGCAAUAUUACGAACG | -0.0623 ± 0.11 | -0.0489 ± 0.12
GGUAAGCAAUAUUACGAACU | -1.25 ± 0.25 | -1.67 ± 0.36
GGUAAGCAAUAUUACGACGA | -0.849 ± 0.098 | 0.225 ± 0.098
GGUAAGCAAUAUUACGAGGA |  | -1.84 ± 0.45
GGUAAGCAAUAUUACGAGUU | -1.56 ± 0.097 | -0.413 ± 0.12
GGUAAGCAAUAUUACGAUAC | -0.265 ± 0.12 | -0.608 ± 0.16
GGUAAGCAAUAUUACGCAGA |  | -1.84 ± 0.47
GGUAAGCAAUAUUACGCAGG | -2.05 ± 0.16 | -1.29 ± 0.15
GGUAAGCAAUAUUACGCGAA | -1.27 ± 0.15 | -1.15 ± 0.16
GGUAAGCAAUAUUACGGACC | -0.973 ± 0.43 | 
GGUAAGCAAUAUUACGGAUG | -3.57 ± 0.34 | -2.09 ± 0.18
GGUAAGCAAUAUUACGGCGC | 0.369 ± 0.14 | 0.841 ± 0.18
GGUAAGCAAUAUUACGGGAA | -2.54 ± 0.39 | -2.06 ± 0.32
GGUAAGCAAUAUUACGGGAC | -2.69 ± 0.29 | -1.27 ± 0.2
GGUAAGCAAUAUUACGGGAG |  | -2.88 ± 0.34
GGUAAGCAAUAUUACGGGCA | -0.438 ± 0.082 | 0.103 ± 0.1
GGUAAGCAAUAUUACGGUCG | -0.945 ± 0.066 | -0.215 ± 0.1
GGUAAGCAAUAUUACGUACG | -0.395 ± 0.11 | -0.415 ± 0.12
